This series addresses microtubules (Example 3).

B1: Drosophila kinesin heavy chain fragment containing amino acids 5-351 with a C-terminal hexahistidine tag (protein)
chain: REIPAEDSIKVVCRFRPLNDSEEKAGSKFVVKFPNNVEENCISIAGKVYLFDKVFKPNASQEKVYNEAAKSIVTDVLAGYNGTIFAYGQTSSGKTHTMEGVIGDSVKQGIIPRIVNDIFNHIYAMEVNLEFHIKVSYYEIYMDKIRDLLDVSKVNLSVHEDKNRVPYVKGATERFVSSPEDVFEVIEEGKSNRHIAVTNMNEHSSRSHSVFLINVKQENLENQKKLSGKLYLVDLAGSEKVSKTGAEGTVLDEAKNINKSLSALGNVISALADGNKTHIPYRDSKLTRILQESLGGNARTTIVICCSPASFNESETKSTLDFGRRAKTVKNVVCVNEELTAEEWKRRHHHHHH
As for B1, the “stimulation of the basal ATPase rate” value is 1,000-fold stimulation of the basal ATPase rate.

Values taken from patent US20080096225.
